Like-named read-outs stand apart in the source and are kept apart here.
T1: human CDH6 on cells (human, UniProt P55285 54-790)
T1 sequence: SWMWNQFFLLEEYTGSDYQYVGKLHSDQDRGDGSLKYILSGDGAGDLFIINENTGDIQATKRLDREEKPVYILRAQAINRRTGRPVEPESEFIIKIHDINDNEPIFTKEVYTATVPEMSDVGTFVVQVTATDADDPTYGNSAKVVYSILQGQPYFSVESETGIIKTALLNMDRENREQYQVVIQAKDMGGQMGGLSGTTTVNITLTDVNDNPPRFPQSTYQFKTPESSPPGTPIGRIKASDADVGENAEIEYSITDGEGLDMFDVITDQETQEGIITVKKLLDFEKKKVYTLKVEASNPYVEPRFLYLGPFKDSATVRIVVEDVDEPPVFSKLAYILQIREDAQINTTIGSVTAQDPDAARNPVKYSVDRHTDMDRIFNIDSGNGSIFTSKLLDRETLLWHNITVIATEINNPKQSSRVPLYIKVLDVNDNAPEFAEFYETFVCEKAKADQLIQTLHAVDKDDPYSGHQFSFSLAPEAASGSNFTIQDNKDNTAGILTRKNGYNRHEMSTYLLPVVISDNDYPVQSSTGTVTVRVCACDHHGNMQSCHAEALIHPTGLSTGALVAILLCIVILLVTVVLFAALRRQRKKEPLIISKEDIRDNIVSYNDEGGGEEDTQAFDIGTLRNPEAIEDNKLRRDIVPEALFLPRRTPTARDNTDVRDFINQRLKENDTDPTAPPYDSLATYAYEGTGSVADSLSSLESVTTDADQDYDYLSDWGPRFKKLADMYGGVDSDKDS

T2: hCDH6aa54-615 APPavi (human, UniProt P55285 54-615)
T2 sequence: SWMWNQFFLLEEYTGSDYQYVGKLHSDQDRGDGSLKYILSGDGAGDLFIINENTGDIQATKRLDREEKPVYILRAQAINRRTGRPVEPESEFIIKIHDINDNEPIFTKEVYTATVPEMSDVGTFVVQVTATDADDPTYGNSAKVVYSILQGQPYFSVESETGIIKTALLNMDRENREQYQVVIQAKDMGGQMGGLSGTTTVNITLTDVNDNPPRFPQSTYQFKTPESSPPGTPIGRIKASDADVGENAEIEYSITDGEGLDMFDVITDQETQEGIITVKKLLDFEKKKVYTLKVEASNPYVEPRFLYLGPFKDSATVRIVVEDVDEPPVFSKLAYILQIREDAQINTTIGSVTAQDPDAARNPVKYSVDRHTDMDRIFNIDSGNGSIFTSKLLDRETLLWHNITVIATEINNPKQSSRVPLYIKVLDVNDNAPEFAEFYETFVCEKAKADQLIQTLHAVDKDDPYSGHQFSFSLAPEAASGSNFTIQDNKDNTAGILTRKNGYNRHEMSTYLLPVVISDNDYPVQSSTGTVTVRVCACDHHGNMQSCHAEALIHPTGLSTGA

T3: rat CDH6 on cells (rat, UniProt P55280 54-789)
T3 sequence (looked up): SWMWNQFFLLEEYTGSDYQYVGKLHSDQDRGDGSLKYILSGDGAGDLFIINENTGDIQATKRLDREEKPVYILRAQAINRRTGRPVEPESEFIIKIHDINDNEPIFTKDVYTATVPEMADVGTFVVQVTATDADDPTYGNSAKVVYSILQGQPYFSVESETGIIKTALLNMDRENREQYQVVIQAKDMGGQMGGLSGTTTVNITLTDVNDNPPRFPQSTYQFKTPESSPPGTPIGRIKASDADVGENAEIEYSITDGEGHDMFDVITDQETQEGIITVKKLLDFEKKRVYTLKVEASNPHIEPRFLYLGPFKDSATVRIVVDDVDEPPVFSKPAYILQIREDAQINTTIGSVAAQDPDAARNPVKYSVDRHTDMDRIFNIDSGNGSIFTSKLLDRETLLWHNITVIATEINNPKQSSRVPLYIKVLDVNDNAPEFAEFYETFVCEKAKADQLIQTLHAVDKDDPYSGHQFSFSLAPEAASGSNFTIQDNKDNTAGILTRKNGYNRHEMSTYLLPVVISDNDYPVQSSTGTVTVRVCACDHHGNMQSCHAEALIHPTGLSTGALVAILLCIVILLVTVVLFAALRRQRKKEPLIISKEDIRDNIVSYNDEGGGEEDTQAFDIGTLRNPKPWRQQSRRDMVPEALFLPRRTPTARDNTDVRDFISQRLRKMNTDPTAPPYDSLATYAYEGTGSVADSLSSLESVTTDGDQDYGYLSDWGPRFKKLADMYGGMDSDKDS

T4: cynomolgus CDH6 on cells (cynomolgus, UniProt A0A2K5TW62 54-790)
T4 sequence: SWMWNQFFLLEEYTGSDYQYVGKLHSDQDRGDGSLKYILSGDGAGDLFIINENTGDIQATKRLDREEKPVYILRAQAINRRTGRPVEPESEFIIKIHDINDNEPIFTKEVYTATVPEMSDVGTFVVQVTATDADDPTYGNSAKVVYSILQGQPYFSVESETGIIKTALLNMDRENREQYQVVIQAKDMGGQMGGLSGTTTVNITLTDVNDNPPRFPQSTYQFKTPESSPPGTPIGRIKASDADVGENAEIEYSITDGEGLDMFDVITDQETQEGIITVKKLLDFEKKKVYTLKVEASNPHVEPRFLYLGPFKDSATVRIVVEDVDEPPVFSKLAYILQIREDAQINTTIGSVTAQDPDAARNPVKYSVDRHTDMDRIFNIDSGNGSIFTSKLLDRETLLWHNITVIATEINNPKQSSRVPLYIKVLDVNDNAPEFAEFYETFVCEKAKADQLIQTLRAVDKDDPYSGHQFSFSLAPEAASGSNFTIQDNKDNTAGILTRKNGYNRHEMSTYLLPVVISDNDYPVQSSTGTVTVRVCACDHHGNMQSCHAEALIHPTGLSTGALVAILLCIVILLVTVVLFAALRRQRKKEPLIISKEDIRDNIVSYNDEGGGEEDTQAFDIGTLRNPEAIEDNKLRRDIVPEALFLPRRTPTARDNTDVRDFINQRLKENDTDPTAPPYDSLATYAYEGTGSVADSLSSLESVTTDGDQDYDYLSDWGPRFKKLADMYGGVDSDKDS

T5: mouse CDH6 on cells (mouse, UniProt P97326 54-790)
T5 sequence (looked up): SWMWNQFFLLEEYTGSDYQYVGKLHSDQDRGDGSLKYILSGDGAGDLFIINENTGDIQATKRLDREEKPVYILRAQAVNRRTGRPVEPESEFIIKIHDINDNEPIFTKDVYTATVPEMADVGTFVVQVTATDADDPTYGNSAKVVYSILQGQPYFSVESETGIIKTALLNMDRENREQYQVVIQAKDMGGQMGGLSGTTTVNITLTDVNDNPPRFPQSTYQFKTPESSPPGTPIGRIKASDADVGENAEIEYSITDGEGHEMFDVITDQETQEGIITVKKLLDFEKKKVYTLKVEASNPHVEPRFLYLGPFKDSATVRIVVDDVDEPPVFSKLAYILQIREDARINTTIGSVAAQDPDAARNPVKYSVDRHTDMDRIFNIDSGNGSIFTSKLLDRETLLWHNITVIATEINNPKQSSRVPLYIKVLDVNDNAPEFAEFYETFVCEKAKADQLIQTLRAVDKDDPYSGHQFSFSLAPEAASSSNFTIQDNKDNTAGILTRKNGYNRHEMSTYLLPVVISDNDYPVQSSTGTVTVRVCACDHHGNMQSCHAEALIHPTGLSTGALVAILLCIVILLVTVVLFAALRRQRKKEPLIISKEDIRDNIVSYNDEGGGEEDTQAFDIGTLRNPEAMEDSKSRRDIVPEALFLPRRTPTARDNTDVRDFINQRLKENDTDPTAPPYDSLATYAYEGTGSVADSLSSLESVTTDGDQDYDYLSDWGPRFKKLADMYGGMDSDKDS


What was measured:
human CDH6 on cells [1] = target: T1, human CDH6 on cells; assay: FACS on OVCAR3 cells, histogram table
human CDH6 on cells [2] = target: T1, human CDH6 on cells; assay: FACS on OVCAR8-CDH6+ cells, histogram table
hCDH6aa54-615 APPavi [3] = target: T2, hCDH6aa54-615 APPavi; assay: SPR binning
hCDH6aa54-615 APPavi [4] = target: T2, hCDH6aa54-615 APPavi; assay: SPR binning; remark: listed apart in the source
hCDH6aa54-615 APPavi [5] = target: T2, hCDH6aa54-615 APPavi; assay: SPR binning; remark: listed apart in the source
hCDH6aa54-615 APPavi [6] = target: T2, hCDH6aa54-615 APPavi; assay: SPR binning; remark: listed apart in the source
hCDH6aa54-615 APPavi [7] = target: T2, hCDH6aa54-615 APPavi; assay: SPR binning; remark: listed apart in the source
hCDH6aa54-615 APPavi [8] = target: T2, hCDH6aa54-615 APPavi; assay: SPR binning; remark: listed apart in the source
hCDH6aa54-615 APPavi [9] = target: T2, hCDH6aa54-615 APPavi; assay: SPR binning; remark: listed apart in the source
human CDH6 on cells [10] = target: T1, human CDH6 on cells; assay: FACS on OVCAR3 cells
rat CDH6 on cells = target: T3, rat CDH6 on cells; assay: FACS on CHO-ratCDH6 cells
cynomolgus CDH6 on cells = target: T4, cynomolgus CDH6 on cells; assay: FACS on CHO-cynoCDH6 cells
human CDH6 on cells [11] = target: T1, human CDH6 on cells; assay: FACS on OVCAR8-CDH6+ cells, EC50 [M] table
human CDH6 on cells [12] = target: T1, human CDH6 on cells; assay: FACS on CHO-TO-humanCDH6 cells plus tetracycline
mouse CDH6 on cells = target: T5, mouse CDH6 on cells; assay: FACS on CHO-mouseCDH6 cells

| Geom. Mean Fluorescence (human CDH6 on cells [1]) | Geom. Mean Fluorescence (human CDH6 on cells [2]) | response of secondary antibody on primary antibody-CDH6 complex (hCDH6aa54-615 APPavi [3]) | response of secondary antibody on primary antibody-CDH6 complex (hCDH6aa54-615 APPavi [4]) | response of secondary antibody on primary antibody-CDH6 complex (hCDH6aa54-615 APPavi [5]) | response of secondary antibody on primary antibody-CDH6 complex (hCDH6aa54-615 APPavi [6]) | response of secondary antibody on primary antibody-CDH6 complex (hCDH6aa54-615 APPavi [7]) | response of secondary antibody on primary antibody-CDH6 complex (hCDH6aa54-615 APPavi [8]) | response of secondary antibody on primary antibody-CDH6 complex (hCDH6aa54-615 APPavi [9]) | EC50 (read off the curve) (human CDH6 on cells [10]) [pM] | EC50 (read off the curve) (rat CDH6 on cells) [pM] | EC50 (read off the curve) (cynomolgus CDH6 on cells) [pM] | EC50 (human CDH6 on cells [11]) [pM] | EC50 (read off the curve) (human CDH6 on cells [12]) [pM] | EC50 (read off the curve) (mouse CDH6 on cells) [pM] | Molecule |
| --- | --- | --- | --- | --- | --- | --- | --- | --- | --- | --- | --- | --- | --- | --- | --- |
| 60.4 | 56.5 |  |  |  |  |  |  |  |  |  |  |  |  |  | control IgG-sulfo-SPDB-DM4 (antibody) |
|  |  | 33.6 | 1.08 | 17.8 | 17.9 | 14.3 | 23.7 | 39.3 |  |  |  |  |  |  | NOV1132 (antibody, human IgG1, lambda, V domains shown) VH: QVQLQQSGPGLVKPSQTLSLTCAISGDSVSSQSAGWNWIRQSPSRGLEWLGRIYYRSKWYNDYAVSVKSRITINPDTSKNQFSLQLNSVTPEDTAVYYCAREKYTVSFYDFFDYWGQGTLVTVSS VL: SYELTQPLSVSVALGQTARITCSGDNIGSMTAHWYQQKPGQAPVLVIYDKNERPSGIPERFSGSNSGNTATLTISRAQAGDEADYYCQSWDDSYTSVVFGGGTKLTVLG |
|  |  |  |  |  |  |  |  |  | ~400 | ~700 | ~700 | 715 | ~500 | ~700 | NOV0712-sulfo-SPDB-DM4 (antibody, human IgG1, kappa, V domains shown, sulfo-SPDB-DM4 on primary amines, sites not stated) VH: QVQLLESGGGLVQPGGSLRLSCAASGFTFSSHGMHWVRQAPGKGLEWVSVISGSGSNTGYADSVKGRFTISRDNSKNTLYLQMNSLRAEDTAVYYCARQWGSYAFDSWGQGTLVTVSS VL: DIQMTQSPSSLSASVGDRVTITCRASQSISSYLNWYQQKPGKAPKLLIYAVSTLQSGVPSRFSGSGSGTDFTLTISSLQPEDFATYYCQQSGTFPPTTFGQGTKVEIKR |
|  |  | -2.36 | 20.7 | 16.1 | 13.5 | 11.1 | 25.4 | 46.9 |  |  |  |  |  |  | NOV0719 (antibody, human IgG1, kappa, V domains shown) VH: QVQLLESGGGLVQPGGSLRLSCAASGFTFSSHWVHWVRQAPGKGLEWVSVISYMGSSTYYADSVKGRFTISRDNSKNTLYLQMNSLRAEDTAVYYCARGSYDMAFDVWGQGTLVTVSS VL: DIQMTQSPSSLSASVGDRVTITCRASQSIVSYLNWYQQKPGKAPKLLIYDASSLQSGVPSRFSGSGSGTDFTLTISSLQPEDFATYYCQQSGSHSITFGQGTKVEIKR |

From patent US20170224836A1 (Novartis, published 2017)
